According to patent US20210017284A1 (ABEOME, published 2021):

Key:
human PD-L1 = target: T1, human PD-L1 (human, UniProt Q9NZQ7 19-238, limits assumed); test: SPR (format not described)
T1 construct: also called CD274; B7-H1

cynomolgus monkey PD-L1 = target: T2, cynomolgus monkey PD-L1 (cynomolgus monkey, UniProt G7PSE7 19-238); test: SPR (format not described)
T2 construct: PD-L1 is implied
T2 sequence (G7PSE7 entry or part of it): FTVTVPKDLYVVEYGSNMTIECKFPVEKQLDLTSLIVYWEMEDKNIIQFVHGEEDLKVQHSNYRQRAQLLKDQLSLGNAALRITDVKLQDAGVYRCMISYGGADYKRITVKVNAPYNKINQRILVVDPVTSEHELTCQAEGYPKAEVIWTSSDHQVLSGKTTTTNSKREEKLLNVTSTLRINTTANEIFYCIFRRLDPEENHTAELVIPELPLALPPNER

T1 sequence (Q9NZQ7 19-238 limits assumed): as the sequence (G7PSE7 entry or part of it) above, with T33A, S34A, N62S, Q68R, R82Q, L173F, A185T, I192T, L215H counted along it

| Kd (human PD-L1) [nM] | Kd (cynomolgus monkey PD-L1) [nM] | Binder |
| --- | --- | --- |
| 0.349 |  | hABM101.11 (IgG4) (antibody, V domains shown) VH: QVQLVQSGPEVKKPGASVKVSCKASGYTFTENSMHWVRQSHGKSLEWMGGINPNNGGTSYNQKFKGKVTMTTDKSTSTAYMELRSLTSDDTAVYYCARPYYYGYREDYFDYWGQGTTLTVSS VL: EIVMTQSPGTLSLSPGERATLSCRASSSVSYMYWYQQKPGQAPRPLIYLTSNLASGIPDRFSGSGSGTDYTLTISRLEPEDFAVYYCQQWSSYPPTFGQGTKVEIKR |
| 0.374 | 0.579 | hABM101.11 (IgG1) (antibody, V domains shown) VH: QVQLVQSGPEVKKPGASVKVSCKASGYTFTENSMHWVRQSHGKSLEWMGGINPNNGGTSYNQKFKGKVTMTTDKSTSTAYMELRSLTSDDTAVYYCARPYYYGYREDYFDYWGQGTTLTVSS VL: EIVMTQSPGTLSLSPGERATLSCRASSSVSYMYWYQQKPGQAPRPLIYLTSNLASGIPDRFSGSGSGTDYTLTISRLEPEDFAVYYCQQWSSYPPTFGQGTKVEIKR |
